Laboratory results published in publication PMC10320842.

T1: hRev1 330-833 EY (human, UniProt Q9UBZ9 330-833, E466A;Y470A)
T1 sequence: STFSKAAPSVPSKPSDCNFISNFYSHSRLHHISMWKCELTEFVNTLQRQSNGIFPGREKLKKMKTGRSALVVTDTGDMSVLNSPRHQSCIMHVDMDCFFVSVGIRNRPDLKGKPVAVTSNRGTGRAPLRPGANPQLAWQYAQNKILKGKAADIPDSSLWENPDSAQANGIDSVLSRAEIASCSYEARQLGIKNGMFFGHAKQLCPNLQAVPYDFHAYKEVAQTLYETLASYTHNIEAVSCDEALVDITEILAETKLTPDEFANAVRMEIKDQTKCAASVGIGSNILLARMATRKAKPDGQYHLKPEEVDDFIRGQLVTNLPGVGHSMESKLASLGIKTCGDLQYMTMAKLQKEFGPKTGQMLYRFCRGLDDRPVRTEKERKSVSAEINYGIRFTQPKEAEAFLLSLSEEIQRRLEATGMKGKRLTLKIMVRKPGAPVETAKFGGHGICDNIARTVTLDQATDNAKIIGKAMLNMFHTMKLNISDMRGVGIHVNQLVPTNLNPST

T2: yRev1 305-746 (Saccharomyces cerevisiae, UniProt P12689 305-746)
T2 sequence: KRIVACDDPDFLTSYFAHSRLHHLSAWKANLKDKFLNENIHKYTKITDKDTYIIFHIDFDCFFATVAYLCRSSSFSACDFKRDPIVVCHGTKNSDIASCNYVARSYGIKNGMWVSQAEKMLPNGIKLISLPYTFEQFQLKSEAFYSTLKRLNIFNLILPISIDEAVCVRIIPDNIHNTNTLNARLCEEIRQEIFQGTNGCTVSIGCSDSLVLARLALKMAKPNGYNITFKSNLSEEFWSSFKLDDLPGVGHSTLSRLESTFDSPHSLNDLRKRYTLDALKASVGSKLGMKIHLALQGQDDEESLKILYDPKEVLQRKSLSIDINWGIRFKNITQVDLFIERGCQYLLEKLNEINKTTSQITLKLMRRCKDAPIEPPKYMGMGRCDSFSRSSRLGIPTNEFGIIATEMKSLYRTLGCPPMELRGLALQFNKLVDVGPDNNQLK

T3: hRev1 330-833 WT (human, UniProt Q9UBZ9 330-833)
T3 sequence: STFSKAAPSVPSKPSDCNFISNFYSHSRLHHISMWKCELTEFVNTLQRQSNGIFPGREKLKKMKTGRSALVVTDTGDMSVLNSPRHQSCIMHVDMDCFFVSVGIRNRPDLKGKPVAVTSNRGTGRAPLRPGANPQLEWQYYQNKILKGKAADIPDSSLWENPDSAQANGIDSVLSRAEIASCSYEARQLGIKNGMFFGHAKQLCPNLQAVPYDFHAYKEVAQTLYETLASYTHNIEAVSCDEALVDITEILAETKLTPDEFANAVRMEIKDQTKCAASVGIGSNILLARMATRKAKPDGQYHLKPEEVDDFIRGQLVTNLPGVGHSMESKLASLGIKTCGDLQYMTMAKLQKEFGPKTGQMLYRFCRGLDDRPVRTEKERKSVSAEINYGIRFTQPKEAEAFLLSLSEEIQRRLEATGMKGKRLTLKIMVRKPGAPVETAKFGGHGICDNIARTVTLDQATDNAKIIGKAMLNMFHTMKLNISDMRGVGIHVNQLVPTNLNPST


Tests used:
Assay in all cases: fluorescence polarization
hRev1 330-833 EY = target: T1, hRev1 330-833 EY
yRev1 305-746 = target: T2, yRev1 305-746
hRev1 330-833 WT = target: T3, hRev1 330-833 WT

Binder	Kd (hRev1 330-833 EY)	Kd (yRev1 305-746)	Kd (hRev1 330-833 WT)
AGCGTGCGTAGCGTGCGTTATGAGATGAT (ssDNA) [ss non-G4 Myc]	650 ± 130 nM	340 ± 60 nM	
p/t non-G4 Myc (mixed) DNA 1: AGCGTGCGTAGCGTGCGTTATGAGATGAT DNA 2: ATCATCTCATA	830 ± 120 nM	480 ± 40 nM	
TGCTTGCTGTGCTTGCTATGAGATGAT (ssDNA) [ss non-G4 TBA]	150 ± 20 nM	450 ± 70 nM	
p/t non-G4 TBA (mixed) DNA 1: TGCTTGCTGTGCTTGCTATGAGATGAT DNA 2: ATCATCTCATA	230 ± 30 nM	450 ± 30 nM	
GTGAGATGTTGACCATGGGTGCGTCTGCGGCTGGCTCGAGGC (ssDNA) [ss-42-mer non-G4]	270 ± 50 nM	340 ± 60 nM	85 ± 11 nM
TGAGGGTGGGTAGGGTGGGTGCGTCTGCGGCTGGCTCGAGGC (structured_DNA) [ss-42-mer Myc G4]	87 ± 10 nM	230 ± 50 nM	4 ± 1 nM
TTGCGTTAGCGTTAGCGTTAGCGATATGAGATGAT (ssDNA) [ss non-G4 Telo-4]		310 ± 40 nM	
23/42-mer non-G4 (mixed) DNA 1: GTGAGATGTTGACCATGGGTGCGTCTGCGGCTGGCTCGAGGC DNA 2: TTTGCCTCGAGCCAGCCGCAGACGCA	300 ± 40 nM	460 ± 50 nM	210 ± 30 nM
13/42-mer non-G4 (mixed) DNA 1: GTGAGATGTTGACCATGGGTGCGTCTGCGGCTGGCTCGAGGC DNA 2: TTTGCCTCGAGCCAGC	250 ± 30 nM		230 ± 30 nM
13/42-mer G4 (mixed) DNA 1: TGAGGGTGGGTAGGGTGGGTGCGTCTGCGGCTGGCTCGAGGC DNA 2: TTTGCCTCGAGCCAGC			31 ± 6 nM
23/42-mer G4 (mixed) DNA 1: TGAGGGTGGGTAGGGTGGGTGCGTCTGCGGCTGGCTCGAGGC DNA 2: TTTGCCTCGAGCCAGCCGCAGACGCA			88 ± 12 nM
